Data as given in US20120316071A1 (published 2012).
Changes are numbered by the printed parent chain. Names may count otherwise. Each block holds one binder with its values, some of them ahead of it.

How the values were obtained:
[1] = biological target: T1, rHuman HGF R/c-MET/Fc Chimera, CF (human, UniProt P08581 25-932); assay: ECL Multispot (MSD) assay; antigen spotted on plate, Fab in solution;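 further: fab bound 1 h at 20 °C, detected by TAG-labelled antibody electrochemiluminescence, signal relative to each well's blank, ratio of 4 or more marks a hit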
T1 construct: Bought from R&D Systems; also called HGF R/Fc; hepatocyte growth factor receptor; not shown: Fc of the bought chimera

[2] = biological target: T2, rHuman ErbB2/Fc Chimera, CF (human, UniProt P04626 23-652); assay: as above
T2 construct: Bought from R&D Systems; also called human epidermal growth factor 2 receptor; not shown: Fc of the bought chimera

[3] = biological target: T3, rHuman IGF-1 sR, (IGF-1 sR), CF (human, UniProt P08069 31-932); assay: as above
T3 construct: Bought from R&D Systems; also called insulin-like growth factor-1 soluble receptor

[4] = biological target: T4, rHuman P-Cadherin/Fc Chimera, CF (human, UniProt P22223 108-654); assay: as above
T4 construct: Bought from R&D Systems; not shown: Fc of the bought chimera

[5] = biological target: T5, rHuman Erythropoietin R/Fc Chimera, CF (human, UniProt P19235 25-250); assay: as above
T5 construct: Bought from R&D Systems; also called EPO R; EPO R/Fc; not shown: Fc of the bought chimera
T5 sequence (looked up): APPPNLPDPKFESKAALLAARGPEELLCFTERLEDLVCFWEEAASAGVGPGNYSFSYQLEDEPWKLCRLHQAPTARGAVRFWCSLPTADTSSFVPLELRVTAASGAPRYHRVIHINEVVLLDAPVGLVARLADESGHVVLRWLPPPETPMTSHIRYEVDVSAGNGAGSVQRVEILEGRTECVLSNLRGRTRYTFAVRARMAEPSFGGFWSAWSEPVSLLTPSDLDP

[6] = biological target: T6, rHuman Notch-1/Fc Chimera, CF (human, UniProt P46531 19-526); assay: as above
T6 construct: Bought from R&D Systems; not shown: Fc of the bought chimera

[7] = biological target: T7, rHuman CD44/Fc Chimera, CF (human, UniProt P16070 21-220); assay: as above
T7 construct: Bought from R&D Systems; not shown: Fc of the bought chimera

Recombinant Human DLL4 = biological target: T8, Recombinant Human DLL4 (human, UniProt Q9NR61 27-524); assay: as above
T8 construct: Bought from R&D Systems; also called delta-like protein 4; rHuman DLL4

[8] = biological target: T9, rHuman EGF R/Fc Chimera, CF (human, UniProt P00533 25-645); assay: as above
T9 construct: Bought from R&D Systems; also called epidermal growth factor receptor; not shown: Fc of the bought chimera

[9] = biological target: T10, rHuman Erythropoietin R/Fc Chimera, CF (R&D Systems Cat#963-ER) (human, UniProt P19235 25-250); assay: ECL multispot (MSD) binding assay, antigen spotted on plate;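 further: purified Fab incubated 1 h at 20 °C on antigen spots, detected with TAG-labelled antibody, electrochemiluminescence compared with each well's blank, signal-to-blank ratio ≥4 counted as hit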
T10 construct: Bought recombinant protein; also called EPO R; EPO R/Fc
T10 sequence (looked up): T5 sequence (looked up)

[10] = biological target: T11, rHuman Notch-1/Fc Chimera, CF (R&D Systems Cat#3647-TK) (human, UniProt P46531 19-526); assay: as above
T11 construct: Bought recombinant protein

[11] = biological target: T12, rHuman P-Cadherin/Fc Chimera, CF (R&D Systems Cat#861-PC) (human, UniProt P22223 108-654); assay: as above
T12 construct: Bought recombinant protein

[12] = biological target: T13, rHuman IGF-1 sR, (IGF-1 sR), CF (R&D Systems Cat#391-GR) (human, UniProt P08069 31-932); assay: as above
T13 construct: Bought recombinant soluble receptor; also called insulin-like growth factor-1 soluble receptor

[13] = biological target: T14, rHuman EGF R/Fc Chimera, CF (R&D Systems Cat#344-ER) (human, UniProt P00533 25-645); assay: as above
T14 construct: Bought recombinant protein; also called epidermal growth factor receptor

[14] = biological target: T15, rHuman CD44/Fc Chimera, CF (R&D Systems Cat#3660-CD) (human, UniProt P16070 21-220); assay: as above
T15 construct: Bought recombinant protein

[15] = biological target: T16, rHuman ErbB2/Fc Chimera, CF (R&D Systems Cat#1129-ER) (human, UniProt P04626 23-652); assay: as above
T16 construct: Bought recombinant protein; also called human epidermal growth factor 2 receptor

[16] = biological target: T17, rHuman HGF R/c-MET/Fc Chimera, CF (R&D Systems Cat#358-MT/CF) (human, UniProt P08581 25-932); assay: as above
T17 construct: Bought recombinant protein; also called HGF R/Fc; hepatocyte growth factor receptor

[17] = biological target: T18, Recombinant Human DLL4 (R&D Systems Cat#1506-D4/CF) (human, UniProt Q9NR61 27-524); assay: as above
T18 construct: Bought recombinant protein; also called delta-like protein 4; rHuman DLL4

[18] = biological target: T19, Recombinant Human DLL4 (delta-like protein 4) (human, UniProt Q9NR61 27-524); assay: ECL (MSD) binding assay, DLL4 immobilised, Fab at 10 nM
T19 construct: also called rHuman DLL4; Delta-like 4

T17 sequence (P08581 25-932, change not shown): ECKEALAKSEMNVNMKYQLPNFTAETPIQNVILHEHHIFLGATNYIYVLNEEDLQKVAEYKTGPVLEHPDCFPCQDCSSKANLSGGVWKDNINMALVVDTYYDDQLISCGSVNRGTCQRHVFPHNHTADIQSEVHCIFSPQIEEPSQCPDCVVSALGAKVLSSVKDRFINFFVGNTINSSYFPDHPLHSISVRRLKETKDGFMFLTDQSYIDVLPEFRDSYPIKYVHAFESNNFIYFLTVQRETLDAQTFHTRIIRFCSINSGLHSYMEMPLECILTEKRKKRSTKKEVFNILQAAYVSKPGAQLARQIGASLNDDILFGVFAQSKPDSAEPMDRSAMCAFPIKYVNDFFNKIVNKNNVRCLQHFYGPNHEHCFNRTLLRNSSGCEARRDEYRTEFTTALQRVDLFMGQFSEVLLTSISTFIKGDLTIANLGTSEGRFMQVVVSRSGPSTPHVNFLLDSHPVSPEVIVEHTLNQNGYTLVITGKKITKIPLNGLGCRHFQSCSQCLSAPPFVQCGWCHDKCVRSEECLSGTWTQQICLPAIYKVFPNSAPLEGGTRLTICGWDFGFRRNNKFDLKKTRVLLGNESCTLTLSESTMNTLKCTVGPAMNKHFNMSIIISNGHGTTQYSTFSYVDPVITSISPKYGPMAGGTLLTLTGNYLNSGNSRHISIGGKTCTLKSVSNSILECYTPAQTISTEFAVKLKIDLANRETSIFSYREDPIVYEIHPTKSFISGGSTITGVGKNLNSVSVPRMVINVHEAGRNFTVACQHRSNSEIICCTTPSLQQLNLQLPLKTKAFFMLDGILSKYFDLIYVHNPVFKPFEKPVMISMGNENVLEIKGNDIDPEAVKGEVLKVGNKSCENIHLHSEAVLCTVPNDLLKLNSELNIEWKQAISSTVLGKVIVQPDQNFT
T1 sequence (P08581 25-932, change not shown): as above

B1: Fab VH1-46_IGHD6-6*01_IGHJ1*01 S102A/S103P/S104F/H111F (APFF) & L6_IGKJ1*01 S28P (Fab, V domains shown)
VH: QVQLVQSGAEVKKPGASVKVSCKASGYTFTSYYMHWVRQAPGQGLEWMGIINPSGGSTSYAQKFQGRVTMTRDTSTSTVYMELSSLRSEDTAVYYCAREEYAPFSAEYFQFWGQGTLVTVSS
VL: EIVLTQSPATLSLSPGERATLSCRASQPVSSYLAWYQQKPGQAPRLLIYDASNRATGIPARFSGSGSGTDFTLTISSLEPEDFAVYYCQQRSNWPPWTFGQGTKVEIKR
notes: Fab made in E. coli; the variable domains were cloned into Plasmid A (CH1, His and Flag tags) and Plasmid C (kappa CL); also called APFF / S28P
- ECL signal [1]: 318
- ECL signal [2]: 427
- ECL signal [3]: 392
- ECL signal [4]: 605
- ECL signal [5]: 492
- ECL signal [6]: 416
- ECL signal [7]: 365
- ECL signal (Recombinant Human DLL4): 178000
- ECL signal [8]: 370

B2: Fab VH1-46_IGHD6-6*01_IGHJ1*01 S102A/S103P/S104F/H111F (APFF) & L6_IGKJ1*01 S28K (Fab, V domains shown)
VH: B1 VH
VL: B1 VL with P28K
notes: Fab made in E. coli; the variable domains were cloned into Plasmid A (CH1, His and Flag tags) and Plasmid C (kappa CL); also called APFF / S28K
- ECL signal [1]: 355
- ECL signal [2]: 270
- ECL signal [3]: 348
- ECL signal [4]: 443
- ECL signal [5]: 477
- ECL signal [6]: 395
- ECL signal [7]: 464
- ECL signal (Recombinant Human DLL4): 124000
- ECL signal [8]: 386

B3: Fab VH1-46_IGHD6-6*01_IGHJ1*01 S102A/S103P/S104F/H111F (APFF) & L6_IGKJ1*01 S28L (Fab, V domains shown)
VH: B1 VH
VL: B1 VL with P28L
notes: Fab made in E. coli; the variable domains were cloned into Plasmid A (CH1, His and Flag tags) and Plasmid C (kappa CL); also called APFF / S28L
- ECL signal [1]: 317
- ECL signal [2]: 222
- ECL signal [3]: 346
- ECL signal [4]: 418
- ECL signal [5]: 404
- ECL signal [6]: 392
- ECL signal [7]: 365
- ECL signal (Recombinant Human DLL4): 72300
- ECL signal [8]: 378

B5: Fab VH1-46_IGHD6-6*01_IGHJ1*01 S102A/S103P/S104F/H111F (APFF) & L6_IGKJ1*01 S31D (Fab, V domains shown)
VH: B1 VH
VL: B1 VL with P28S, S31D
notes: Tested as Fab (CH1 with His6/Flag tags, kappa CL) made in E. coli; also called APFF / S31D
- ECL signal [9]: 596
- ECL signal [10]: 510
- ECL signal [11]: 451
- ECL signal [12]: 407
- ECL signal [13]: 438
- ECL signal [14]: 471
- ECL signal [15]: 479
- ECL signal [16]: 429
- ECL signal [17]: 154000

B7: Fab VH1-46_IGHD6-6*01_IGHJ1*01 S102A/S103P/S104F/H111F (APFF) & L6_IGKJ1*01 S31I (Fab, V domains shown)
VH: B1 VH
VL: B1 VL with P28S, S31I
notes: Tested as Fab (CH1 with His6/Flag tags, kappa CL) made in E. coli; also called APFF / S31I
- ECL signal [9]: 500
- ECL signal [10]: 421
- ECL signal [11]: 444
- ECL signal [12]: 365
- ECL signal [13]: 363
- ECL signal [14]: 506
- ECL signal [15]: 222
- ECL signal [16]: 303
- ECL signal [17]: 174000

B8: Fab VH1-46_IGHD6-6*01_IGHJ1*01 S102A/S103P/S104F/H111F & L6_IGKJ1*01 A51T (Fab, V domains shown)
VH: B1 VH
VL: B1 VL with P28S, A51T
notes: also called APFF & L6_IGKJ1*01 A51T
- Signal [10 nM Fab] [18]: 2850

Other lines, results leading:

- ECL signal [9]: 509
- ECL signal [10]: 374
- ECL signal [11]: 360
- ECL signal [12]: 335
- ECL signal [13]: 363
- ECL signal [14]: 384
- ECL signal [15]: 300
- ECL signal [16]: 288
- ECL signal [17]: 176000
B4: Fab VH1-46_IGHD6-6*01_IGHJ1*01 S102A/S103P/S104F/H111F (APFF) & L6_IGKJ1*01 S31V (Fab, V domains shown)
VH: B1 VH
VL: B1 VL with P28S, S31V
notes: Tested as Fab (CH1 with His6/Flag tags, kappa CL) made in E. coli; also called APFF / S31V

- ECL signal [9]: 427
- ECL signal [10]: 365
- ECL signal [11]: 346
- ECL signal [12]: 405
- ECL signal [13]: 375
- ECL signal [14]: 371
- ECL signal [15]: 288
- ECL signal [16]: 319
- ECL signal [17]: 155000
B6: Fab VH1-46_IGHD6-6*01_IGHJ1*01 S102A/S103P/S104F/H111F (APFF) & L6_IGKJ1*01 S31L (Fab, V domains shown)
VH: B1 VH
VL: B1 VL with P28S, S31L
notes: Tested as Fab (CH1 with His6/Flag tags, kappa CL) made in E. coli; also called APFF / S31L
